For data set [1], the target named is dephosphorylated myelin basic protein. Description: cell-based or functional assay.
Data set [2] addresses SAMS peptide. The experiment in a line: cell-based or functional assay.
Data set [3] addresses whole histone fraction. The experiment in a line: cell-based or functional assay.
For data set [4], the target named is dephosphorylated B-casein. Description: cell-based or functional assay.
The target in data set [5] is protamine sulfate. The experiment in a line: cell-based or functional assay.
Data set [6] concerns the target T1, SNARK (Rattus norvegicus, UniProt Q66HE5).
T1 sequence (Q66HE5 1-630): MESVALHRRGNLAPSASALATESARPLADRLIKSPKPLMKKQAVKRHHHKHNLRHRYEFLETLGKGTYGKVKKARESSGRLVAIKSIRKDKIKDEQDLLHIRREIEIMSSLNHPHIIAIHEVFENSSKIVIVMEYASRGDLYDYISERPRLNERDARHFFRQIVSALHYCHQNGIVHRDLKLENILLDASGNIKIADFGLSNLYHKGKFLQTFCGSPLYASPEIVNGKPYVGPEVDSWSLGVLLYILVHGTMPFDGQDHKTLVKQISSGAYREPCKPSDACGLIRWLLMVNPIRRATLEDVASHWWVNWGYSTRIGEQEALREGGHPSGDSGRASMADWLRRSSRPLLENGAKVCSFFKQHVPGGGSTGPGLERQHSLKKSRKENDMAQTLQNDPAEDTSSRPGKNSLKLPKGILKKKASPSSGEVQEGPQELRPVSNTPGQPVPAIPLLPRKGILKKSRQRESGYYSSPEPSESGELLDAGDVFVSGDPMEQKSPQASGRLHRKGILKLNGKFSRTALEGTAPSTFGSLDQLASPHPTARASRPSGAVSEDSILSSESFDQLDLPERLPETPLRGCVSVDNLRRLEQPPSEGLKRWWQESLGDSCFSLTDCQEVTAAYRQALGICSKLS
Description: Kinase assay of immunoprecipitated SNARK with candidate substrates (substrate specificity). Details: In the assays performed with SNARK immunoprecipitated from NRKC cell lysates; endogenous in cells; host or cells: NRKC (neonatal rat keratinocytes). The note with it: for Activity (phosphotransferase activity of SNARK towards substrate): SNARK immunoprecipitated from 500 ug NRKC cell lysate, SAMS peptide 250 uM or 30 ug of other substrate, 1 μM PKC inhibitor and 500 nM PKA inhibitor peptides, 30 C, means±S.E.M.; for Ability of SNARK to phosphorylate the substrate: SNARK immunoprecipitated from NRKC cell lysates, PKA and PKC peptide inhibitors included. The data set is classed as biochemical. The method, then: (§1) Kinase Assay—Following immunoprecipitation with antiserum, SNARK activity was analysed by performing kinase assays with immunoprecipitated SNARK and a variety of substrates (MBP, B-casein, whole histone fraction, protamine sulphate and a synthetic peptide substrate (HMRSAMSGLHLVKRR, ‘SAMS’ peptide). Kinase assays with the SAMS peptide were performed essentially as described, except that the three washes were done with IP buffer containing 500 mM NaCl followed by a final wash in kinase assay buffer. For kinase assays performed to determine substrate specificity (with substrates other than SAMS peptide), reactions included 30 ug of substrate, 500 nM PKA inhibitor peptide and 1 uM PKC inhibitor peptide. Activities were calculated as fmol of phosphate incorporated into the SAMS peptide/min per milligram of lysate subjected to immunoprecipitation, minus the activity obtained with a blank reaction (cell lysate and Protein A-Sepharose only).
Peptide inhibitors of PKA and PKC were included in these reactions to eliminate phosphorylation of these substrates by these enzymes.
Immunoprecipitation of 500 ug of NRKC cell lysate with SNARK antiserum was performed as described above. Phosphotransferase activity was assayed with either SAMS peptide (250 uM) or 30 ug of dephosphorylated MBP, dephosphorylated β-casein, whole histone fraction or protamine sulfate in the presence of 1 μM PKC inhibitor and 500 nM PKA inhibitor peptides. Phosphortransferase activity is expressed in fmol of phosphate transferred to the SAMS peptide/min at 30 C per mg of protein subjected to immunoprecipitation. Results are means±S.E.M. for two individual assays with at least eight samples per group. *p<0.01 compared with all other substrates.

Data set [7] relates to SNARK. Description: SNARK phosphotransferase activity (SAMS peptide) assayed in the presence of AMP, wildtype and SNARK-transfected BHK cell lysates. The data set is classed as biochemical, hamster. The following applies: 200 μM AMP in assay; wildtype BHK cell lysates. The method, then:
(§2) FIG. 7. […] SNARK protein was immunoprecipitated from 500 μg of cell lysate from wildtype BHK, BHK−1, BHK+1 and BHK+11 cells. Kinase assays were performed using the 200 μM SAMS peptide as substrate in kinase reaction cocktail. NRKC cells (stippled box); wildtype BHK cells (solid box); BHK+1 and +11 cells (hatched boxes). Results are the means±S.E.M. for 2 experiments (n=5 each time). For comparative purposes, AMPKα2 activity was assayed in these cell lines and found to be equivalent to, 4-fold lower and 1.5-fold lower than the SNARK activity levels measured under basal growth conditions in wildtype BHK, SNARK-transfected BHK and NRKC cell lines, respectively (data not shown).
as §1, with “Activities were calculated as fmol of phosphate incorporated into the SAMS peptide/min per milligram of lysate subjected to immunoprecipitation, minus the activity obtained with a blank reaction (cell lysate and Protein A-Sepharose only).” left out

Data set [8] deals with T1, SNARK. The experiment in a line: SNARK phosphotransferase activity (SAMS peptide) assayed in the presence of AMP, NRKC cell lysates. The data set is classed as biochemical. Details: In the assays performed with SNARK immunoprecipitated from NRKC cell lysates; endogenous in cells; host or cells: NRKC (neonatal rat keratinocytes). The following applies: 200 μM AMP in assay; NRKC cells; p<0.001. The method, then:
as §2
as §1, with “Activities were calculated as fmol of phosphate incorporated into the SAMS peptide/min per milligram of lysate subjected to immunoprecipitation, minus the activity obtained with a blank reaction (cell lysate and Protein A-Sepharose only).” left out

The target of data set [9] is T1, SNARK. The experiment in a line: SNARK phosphotransferase activity (SAMS peptide) assayed in the presence of AMP, wildtype and SNARK-transfected BHK cell lysates. The following applies: 200 μM AMP in assay; SNARK-transfected BHK cell lysates. Details: The complete open reading frame of rat SNARK was subcloned into the pcDNA3.1 vector; expressed in transfected cells. The data set is classed as biochemical, hamster. As for the experimental part:
as §2
as §1, with “Activities were calculated as fmol of phosphate incorporated into the SAMS peptide/min per milligram of lysate subjected to immunoprecipitation, minus the activity obtained with a blank reaction (cell lysate and Protein A-Sepharose only).” left out

The target in data set [10] is T2, AMPK-α2 (Rattus norvegicus, UniProt P80385+Q09137).
T2 construct: increased at least 2-fold upon treatment with ImM AICAR in NRKC cells; endogenous in cells; host or cells: NRKC (neonatal rat keratinocytes)
T2 sequence (Q09137 whole entry): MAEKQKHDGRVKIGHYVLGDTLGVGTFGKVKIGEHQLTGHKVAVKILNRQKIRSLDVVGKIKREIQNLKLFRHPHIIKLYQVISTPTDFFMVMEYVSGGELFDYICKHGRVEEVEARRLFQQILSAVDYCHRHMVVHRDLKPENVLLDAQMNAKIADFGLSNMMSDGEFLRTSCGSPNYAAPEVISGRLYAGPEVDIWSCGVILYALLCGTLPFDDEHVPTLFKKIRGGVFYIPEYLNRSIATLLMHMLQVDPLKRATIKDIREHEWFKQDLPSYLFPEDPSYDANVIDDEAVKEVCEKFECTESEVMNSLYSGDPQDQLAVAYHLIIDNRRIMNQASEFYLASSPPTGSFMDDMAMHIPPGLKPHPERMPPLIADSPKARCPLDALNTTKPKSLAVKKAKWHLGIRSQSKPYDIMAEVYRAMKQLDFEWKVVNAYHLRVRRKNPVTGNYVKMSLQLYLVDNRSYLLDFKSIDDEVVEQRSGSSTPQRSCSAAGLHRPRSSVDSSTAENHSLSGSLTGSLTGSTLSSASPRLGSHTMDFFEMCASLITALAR
T2 sequence (P80386 whole entry partner): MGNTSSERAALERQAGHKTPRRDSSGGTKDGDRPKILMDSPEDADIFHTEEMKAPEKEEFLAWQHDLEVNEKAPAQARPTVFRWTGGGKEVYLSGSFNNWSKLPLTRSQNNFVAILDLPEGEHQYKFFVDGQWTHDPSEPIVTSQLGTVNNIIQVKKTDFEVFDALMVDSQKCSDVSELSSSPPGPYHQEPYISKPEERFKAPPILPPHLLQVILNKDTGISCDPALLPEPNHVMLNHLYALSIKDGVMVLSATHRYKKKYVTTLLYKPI
T2 sequence (P80385 whole entry): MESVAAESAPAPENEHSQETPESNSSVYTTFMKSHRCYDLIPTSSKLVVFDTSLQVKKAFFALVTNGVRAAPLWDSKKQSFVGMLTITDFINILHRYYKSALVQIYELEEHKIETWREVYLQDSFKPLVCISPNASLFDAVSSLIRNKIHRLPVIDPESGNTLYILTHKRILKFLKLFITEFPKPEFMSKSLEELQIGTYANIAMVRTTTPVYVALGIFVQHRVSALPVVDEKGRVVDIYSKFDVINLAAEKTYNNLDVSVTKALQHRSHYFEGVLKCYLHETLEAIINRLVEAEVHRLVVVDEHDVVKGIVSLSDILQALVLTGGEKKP
Description: AMPK-α2 activity in NRKC cells treated with AICAR. Format: cell-based. The following applies: ImM AICAR, same assay conditions, data not shown.

For data set [11], the target named is T3, AMPKα1 (Rattus norvegicus, UniProt P54645+P80385).
T3 construct: endogenous in cells; host or cells: NRKC (neonatal rat keratinocytes)
T3 sequence (P54645 whole entry): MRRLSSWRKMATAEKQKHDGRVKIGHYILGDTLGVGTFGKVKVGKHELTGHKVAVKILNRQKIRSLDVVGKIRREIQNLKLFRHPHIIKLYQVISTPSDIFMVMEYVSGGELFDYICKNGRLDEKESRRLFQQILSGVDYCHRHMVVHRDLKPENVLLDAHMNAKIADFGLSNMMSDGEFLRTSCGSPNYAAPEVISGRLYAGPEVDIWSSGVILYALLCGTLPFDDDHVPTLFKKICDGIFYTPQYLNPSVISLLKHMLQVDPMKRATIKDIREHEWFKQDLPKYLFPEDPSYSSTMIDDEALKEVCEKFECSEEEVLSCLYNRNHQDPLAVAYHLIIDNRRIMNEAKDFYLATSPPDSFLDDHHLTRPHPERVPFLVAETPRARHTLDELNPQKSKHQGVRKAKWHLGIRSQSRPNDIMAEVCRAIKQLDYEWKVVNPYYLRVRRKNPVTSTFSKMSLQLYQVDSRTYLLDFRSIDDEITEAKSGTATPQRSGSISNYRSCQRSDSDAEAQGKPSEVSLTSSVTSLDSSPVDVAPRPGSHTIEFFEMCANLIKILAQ
T3 sequence (P80386 whole entry partner): as the sequence (P80386 whole entry partner) above
T3 sequence (P80385 whole entry): as the sequence (P80385 whole entry) above
Description: AMPKα1 activity in NRKC cells treated with AICAR. Format: cell-based. The following applies: treatment with AICAR, data not shown.

Data set [12] has as its target T1, SNARK. The experiment in a line: Activation of SNARK in NRKC cells using AICAR. Format: cell-based. Details: In the assays performed with SNARK immunoprecipitated from NRKC cell lysates; endogenous in cells; host or cells: NRKC (neonatal rat keratinocytes). The note with it: 1 mM AICAR for one hour, kinase assay with 200 μM AMP and SAMS peptide, p<0.05. As for the experimental part:
FIG. 8.(A) Activation of SNARK in NRKC cells using AICAR. NRKC cells were treated with 0, 0.5 mM, 1 mM or 2 mM AICAR for 1 hour. SNARK protein was immunoprecipitated from 500 μg of cell lysates with SNARK antiserum and kinase assays were performed in the presence of 200 μM AMP using the SAMS peptide. Solid box represents control (0 mM AICAR) samples and hatched boxes represent AICAR-treated samples. Data is expressed as phosphotransferase activity relative to control values (control=1) and represents the means±S.E.M. for 2 individual experiments with at least 10 samples per group per experiment. *p<0.06, relative to control values. […] Results are expressed as phosphotransferase activity relative to control values (control=1) and represents the mean±S.E.M. from 2 individual experiments with at least 10 samples per group per experiment. *p<0.03, relative to control values. […]
The adenosine analogue, 5-aminoimidizole-4-carboxamide riboside (AICAR), provides a means of stimulating AMPK activity in whole cells, even in the presence of high glucose concentrations, and mimics the effects of AMP on the AMPK cascade. Intriguingly, SNARK activity was induced 2.8-fold (p<0.05) in NRKC cells when treated with 1 mM AICAR for one hour (FIG. 8A, hatched box), as compared to SNARK activity measured in untreated NRKC cells (solid box).

Marks after values point to notes of the source that are not given here.

For rat SNARK protein (enzyme), the Activity (fmol/min per mg); phosphotransferase activity of SNARK immunoprecipitated from NRKC cell lysate (fmol/min per mg) in data set [1] stood at 91; in data set [2], 145; in data set [3], 19; in data set [4], 37; in [5], 7.
As to Protamine sulfate, in data set [6], the “Activity (phosphotransferase activity of SNARK towards substrate)” value turned out to be 7 ± 2 fmol/min per mg and the “Ability of SNARK to phosphorylate the substrate” value is given as “minimal”.
“HMRSAMSGLHLVKRR [SAMS peptide, synthetic peptide AMPK substrate corresponding to the site in rat acetyl-CoA carboxylase phosphorylated by AMPK]”: in data set [6], the “Activity (phosphotransferase activity of SNARK towards substrate)” value is on record as 145 ± 46* fmol/min per mg and the “Ability of SNARK to phosphorylate the substrate” value was “able to phosphorylate”.
`Nc1ncnc2c1ncn2[C@@H]1O[C@H](COP(=O)(O)O)[C@@H](O)[C@H]1O` [AMP]: the “Change in SNARK phosphotransferase activity” value in [7] and in data set [9] was “no significant change” each time. For the same compound, the “Increase in SNARK phosphotransferase activity” value in [8] was determined as 1.7 fold.
As for `NC(=O)c1ncn([C@@H]2O[C@H](CO)[C@@H](O)[C@H]2O)c1N` [AICAR, 5-aminoimidizole-4-carboxamide riboside], in data set [10], the “Increase in AMPK-α2 activity over basal” value is listed as “at least 2 fold”. Also, the “Stimulation of AMPKα1 activity” value in [11] is given as “not stimulated”. The “Induction of SNARK activity relative to untreated cells” value in data set [12] amounted to 2.8 fold.
